Series [1] concerns CCl4 induced liver damage. In words: Effect on CCl4 induced liver damage (plasma GPT level). In kind it is in vivo. Particulars: mouse plasma, 18 hours fasting after CCl4 (10% v/v in sesame oil, 10 ml/kg i.p.); tail vein injection; Free PGE1 0.065 mg/kg, polymer 1 mg/kg. The procedure:
A solution of 10% (v/v) of CCl4 in sesame oil at dose of 10 ml/kg was administered into mouse abdominal cavity, and then drug (saline solution (Control), Free-PGE1 (Comparison), drug (PGE1)-containing polymer of the present invention PGE1-HZ-PLGA-HZ-Lac (reductive) (prepared in Example 6)) were injected into mouse through its tail vein at the setting dose. After the mouse had been fasted for 18 hours (25° C., water was freely given), blood was collected to assay GPT level (IU/L) in plasma.

The nature of series [2]: Biodistribution of [3H]PGE1-containing polymer (Polymer P2) after tail vein injection. Particulars: i.v., 3H label; for percentage of concentration in 1 ml of plasma: mean±S.D.; for percentage of urinary excretion: Urine. The format is in vivo, mouse. The procedure:
PLGA-HZ-Gal (prepared in Example 3) and PLGA-HZ-Lac (prepared in Example 5) were labeled with ^111In and were injected into mouse through its tail vein at dose of 1 mg/kg to analyze biodistribution of them. The results are shown in Tables 1 and 2 (Each value in Tables means the percentage of concentration in 1 ml of plasma, the percentage of amount of accumulation in each organ and the percentage of urinary excretion of the said PLGA derivatives (mean±S.D.), respectively at various times after administration.).
Biodistribution of [^3H]PGE1-HZ-PLGA-HZ-Gal (prepared in Example 4, degree of polymerization=97) and [^3H]PGE1-ED-PLGA-ED-Gal (Comparison: the polymer described in International J. Pharmaceutics, 155, 65-74 (1997), degree of polymerization=101) was analyzed by the same procedure as described in Experiment 1. The results are shown in Tables 3 (Invention) and 4 (Comparison) (Each value in Tables means the percentage of concentration in 1 ml of plasma, the percentage of amount of accumulation in each organ and the percentage of urinary excretion of the said [^3H]PGE1 derivatives (mean±S.D.), respectively at various times after administration.).

As for `CCCCCC(O)/C=C/C1C(O)CC(=O)C1CCCCCCC(=O)O` (centres unmarked) [Free PGE1, PGE1, reference compound], the GPT level in series [1] is 660.89 ± 218.28 IU/L.

The compound “PGE1-HZ-PLGA-HZ-Lac (Reductive/degree of Polymerization: d^3=0, x^3=35, y^3=36, z^3=22, w^3=4)” gave a GPT level in series [1] of 239.12 ± 77.482 IU/L.

With “[^3H]PGE1-HZ-PLGA-HZ-Gal (Degree of Polymerization: d^3=0, x^3=29, y^3=32, z^3=31, w^3=5) [[^3H]-PGE1-HZ-PLGA-HZ-Gal]”, the “percentage of amount of accumulation in organ” value (“percentage of amount … in organ” for short) in series [2] (Kidney, 1 min.) came out at 1.26 ± 0.23%; in series [2] (Kidney, 5 min.) it was 1.23 ± 0.06%; in series [2] (Kidney, 10 min.), 0.79 ± 0.14%; in series [2] (Kidney, 60 min.), 0.64 ± 0.22%; in series [2] (Liver, 1 min.) it was 54.42 ± 0.79%; in series [2] (Liver, 5 min.) it was 70.39 ± 3.51%. In addition, the “percentage of amount … in organ” value in series [2] (Liver, 10 min.) is reported as 80.54 ± 9.52%; in series [2] (Liver, 60 min. (1 hour)), 85.43 ± 3.78%; in series [2] (Lung, 1 min.) it was 1.88 ± 0.46%; in series [2] (Lung, 5 min.) it was 1.64 ± 0.56%; in series [2] (Lung, 10 min.) it was 1.00 ± 0.21%; in series [2] (Lung, 60 min.) it was 0.44 ± 0.18%. The “percentage of amount … in organ” value amounted to 1.11 ± 0.14% in series [2] (Spleen, 1 min.); 1.85 ± 0.10% in series [2] (Spleen, 5 min.); 1.24 ± 0.17% in series [2] (Spleen, 10 min.); 1.84 ± 0.16% in series [2] (Spleen, 60 min.). Also, the “percentage of concentration in 1 ml of plasma” value in series [2] (1 min. after administration) came out at 14.33 ± 0.75%; in series [2] (5 min. after administration), 1.64 ± 0.51%; in series [2] (10 min. after administration), 0.40 ± 0.06%; in series [2] (60 min. after administration), 0.26 ± 0.07%. In addition, the “percentage of urinary excretion” value is 0.00 ± 0.00% in series [2] (1 min.), 1.17 ± 1.01% in series [2] (5 min.), 1.79 ± 0.25% in series [2] (10 min.) and 1.45 ± 0.83% in series [2] (60 min.).

The values above are taken from patent US6500916B1, “Carrier polymers migrating into target organs and drug-containing polymers” (Ono Pharmaceutical Co., Ltd., priority 1998, dated 2002).
